Laboratory results: PMC11206591, “Novel Ultrasound-Responsive Amyloid Formulation” (Pharmaceuticals, 2024)

Biological target: the molecule itself
Test: thioflavin T (ThT) fluorescence; 200 µM peptide in 100 mM ammonium acetate buffer pH 7, 37 °C in a thermomixer, read at 24 h and 48 h; with and without Pluronic F127 0.01% and Dox; ThT 50 µM in 20 mM Tris pH 8, 440/482 nm

B1: Receptor-interacting protein RIP 3 peptide NIYNCSGVQVGD (peptide)
peptide: NIYNCSGVQVGD
notes: The amyloids were formed from the peptide alone and also with Pluronic F127 (0.01% w/v) and/or Doxorubicin; also called 12-amino-acid peptide from the amyloidogenic region of RIP3; source: synthetic peptide, custom-synthesized from Genscript
- binding result: binds
